Data on two molecules can be found in paper PMC6764859 (Nature chemical biology, 2019).

Assay [1] concerns the target PTCH1_(ECD2), biotinylated (BLI) (human, UniProt Q13635, biotin on the BirA-recognition sequence). As to the kind of experiment: BLI.
Assay [2] deals with PTCH1_(ECD1), biotinylated (BLI) (human, UniProt Q13635, biotin on the BirA-recognition sequence). As to the kind of experiment: BLI. (In general: In BLI a coated tip is dipped into the sample, and binding shifts an interference pattern.)
PTCH1_(ECD1), biotinylated (BLI), sequence (Q13635 139-428): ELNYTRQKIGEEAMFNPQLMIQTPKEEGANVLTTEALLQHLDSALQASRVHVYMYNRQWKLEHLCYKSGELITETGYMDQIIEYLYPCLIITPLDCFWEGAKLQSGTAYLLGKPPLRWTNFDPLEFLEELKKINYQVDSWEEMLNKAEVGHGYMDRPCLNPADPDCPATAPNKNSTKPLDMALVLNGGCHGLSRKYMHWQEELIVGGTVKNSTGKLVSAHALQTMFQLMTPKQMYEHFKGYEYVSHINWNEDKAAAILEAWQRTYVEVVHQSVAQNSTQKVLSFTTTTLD

PTCH1_(ECD2), biotinylated (BLI), sequence (Q13635 772-1023): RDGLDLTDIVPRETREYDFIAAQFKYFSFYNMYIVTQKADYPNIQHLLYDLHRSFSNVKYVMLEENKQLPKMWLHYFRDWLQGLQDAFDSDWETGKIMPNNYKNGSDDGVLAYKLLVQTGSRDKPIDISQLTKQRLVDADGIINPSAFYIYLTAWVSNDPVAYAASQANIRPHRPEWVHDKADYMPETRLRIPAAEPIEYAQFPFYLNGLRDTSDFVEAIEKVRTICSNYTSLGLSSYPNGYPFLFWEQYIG

B1: NB75 (VHH)
VHH: QVQLQESGGGLVQAGDSLTLSCAASGRTFSSYTMGWFRQAPGKERDFIAGITSTGSSTYYADSVKGRFTISRDNAKNTVYLQMNSLKPEDTADYYCARKVAGGSYYQKDKYDYWGQGTQVTVSS
B1: the binding result in assay [1] was “binds”.

B2: NB64 (VHH)
VHH: QVQLQESGGGLVQPGGSLRLSCAASGSGNSINVMGWYRQAPGKPRELVAEITSSGTTNYADSVKGRFSISRDNAKNTVPLQMNSLKPEDTAIYYCSAVLVRFGGLRRSYWGQGTQVTVSS
On to B2, for which the binding result in assay [2] is on record as “binds”.
